{"source": "paper PMC6191539", "about": "“NadA3 Structures Reveal Undecad Coiled Coils and LOX1 Binding Regions Competed by Meningococcus B Vaccine-Elicited Human Antibodies” (mBio, 2018)", "binders": {"B1": {"name": "NadA3 24–170 K68A K69A D70A mutant (domain or fragment)", "chain": "ATNDDDVKKAATVAIAAAYNNGQEINGFKAGETIYDIDEDGTITAAAATAADVEADDFKGLGLKKVVTNLTKTVNENKQNVDAKVKAAESEIEKLTTKLADTDAALADTDAALDATTNALNKLGENITTFAEETKTNIVKIDEKLEA", "notes": "NadA3, N. meningitidis serogroup B strain 2996, UniProt Q8KH85, residues 24-170 with K68A, K69A and D70A"}}, "biological_target": "T1, full-length human LOX-1 fused to yellow fluorescent protein, expressed on CHO-K1 cells (human, UniProt P78380 1-273)", "T1 construct": "LOX-1 (low-density oxidized lipoprotein lectin-like receptor 1), human, full length, on transfected CHO-K1 cells; pEYFP-N1 usually places the YFP at the C-terminus of the insert (surmise); also called low-density oxidized lipoprotein lectin-like receptor 1; LOX-1-expressing cells; source: CHO-K1 cells, transiently transfected (pEYFP-N1 vector), on live cells", "assay": "flow cytometry on cells; CHO-K1 cells transiently expressing human LOX-1-YFP mixed with NadA3 protein (200 µg/ml) for 30 min at 37°C; detected with mouse polyclonal anti-NadA3 and APC-conjugated secondary antibody", "settings": "one partner purified", "data": [{"binder": "B1", "values": [{"measurement": "percent doubly positive cells (LOX-1 and NadA)", "result": 49.8, "unit": "%"}]}]}
